B1: CPEB3 Ribozyme (parent)
chain: UAACAGGGGGCCACAGCAGAAGCGUUCACGUCGCAGCCCCUGUCAGAUUCUGGUGAAUCUGCGAAUUCUGCUGUAUAUCUC

Variants of: B1
Assay: self-cleavage, relative activity (ratio to wild type); higher = more cleavage; in vitro, sequencing
Outline: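 After error-prone PCR and barcoding, CPEB3 ribozyme mutant libraries were transcribed with T7 RNA polymerase at 37°C for 5 hours, then given 15 min with DNase I before an EDTA stop, and they cleaved during both steps. Reverse transcription with template switching preceded Illumina sequencing. Relative activity divides a variant's cleaved/total read fraction by the unmutated ribozyme's. At least 5 reads were required per variant, and three batches were averaged.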

Compared with U66A U67C, G63U A77G is higher in self-cleavage: 0.33 for the first, 1.24 for the second.

Compared with A65C U67C, U66G A75U is higher in self-cleavage: 0.23 for the first, 0.67 for the second.

First: G63A U74C
Second: G63A U74A
The self-cleavage of the first is higher: 1.21 for the first, 0.33 for the second.

First: A65U U76A
Second: A65U U76C
The self-cleavage of the first is lower: 0.19 for the first, 0.24 for the second.

Going from G63C U72C to G63C U72A, the self-cleavage falls from 1.14 to 0.4.

Going from G63A U72G to G63A U72A, the self-cleavage falls from 0.84 to 0.59.

Compared with G63A U72C, G63U U69A is lower in self-cleavage: 0.91 for the first, 0.57 for the second.

Compared with G63A A65G, G63C C79A is higher in self-cleavage: 0.38 for the first, 1.09 for the second.

First: U66A U69C
Second: U66A U69A
The self-cleavage of the first is lower: 0.26 for the first, 0.32 for the second.

Going from A64G A77G to A64G A77U, the self-cleavage rises from 0.84 to 1.03.

Going from A65C U78C to A65C U66C, the self-cleavage falls from 0.15 to 0.11.

Compared with A64G U80G, A64G U80A is higher in self-cleavage: 0.67 for the first, 1.03 for the second.

Going from A64G U80C to A64U U80C, the self-cleavage falls from 0.95 to 0.45.

First: A64U U80A
Second: G63A A77G
The self-cleavage of the first is lower: 0.37 for the first, 0.74 for the second.

First: G63A A77U
Second: A65G U74C
The self-cleavage of the first is higher: 0.99 for the first, 0.79 for the second.

Compared with A65G U74A, A65G U74G is higher in self-cleavage: 0.86 for the first, 0.89 for the second.

First: U67A A77U
Second: U67A A77G
The self-cleavage of the first is lower: 0.39 for the first, 0.57 for the second.

First: A65G A77C
Second: A65G A77G
The self-cleavage of the first is lower: 0.45 for the first, 0.51 for the second.

Compared with A65G A77U, A65C U80C is lower in self-cleavage: 0.55 for the first, 0.53 for the second.

Compared with A64U C81A, U67A is higher in self-cleavage: 0.42 for the first, 0.54 for the second.

Going from U66C U76G to U66C U76C, the self-cleavage rises from 0.39 to 0.43.

Compared with U66C U76A, G63U A75U is higher in self-cleavage: 0.41 for the first, 1.2 for the second.

Going from G63U A75G to U67A G73C, the self-cleavage falls from 1.14 to 1.07.

Compared with U67A G73A, G63U C79U is higher in self-cleavage: 1.05 for the first, 1.09 for the second.

Going from A65U U78C to G63A G73A, the self-cleavage rises from 0.18 to 1.34.

Going from G63C U74C to U67A U78C, the self-cleavage falls from 1.21 to 0.52.

Compared with U67A U78A, G63C U76C is higher in self-cleavage: 0.64 for the first, 1.03 for the second.

First: U66G U80A
Second: U66G U80C
The self-cleavage of the first is higher: 0.67 for the first, 0.54 for the second.

Compared with A65U U80C, A65U U80G is lower in self-cleavage: 0.38 for the first, 0.21 for the second.

Compared with A65U U80A, G63U C81U is higher in self-cleavage: 0.15 for the first, 0.99 for the second.

First: U67A C81G
Second: G63A A64G
The self-cleavage of the first is higher: 0.92 for the first, 0.6 for the second.

Going from G63A A64U to G63A U67C, the self-cleavage falls from 0.54 to 0.3.

Going from G63A U67A to G63C U78A, the self-cleavage rises from 0.31 to 1.01.

First: G63C
Second: G63U
The self-cleavage of the first is lower: 0.92 for the first, 1.09 for the second.

Going from U66A A75U to A64U U74A, the self-cleavage falls from 0.68 to 0.51.

First: A64U U74C
Second: U67A C79A
The self-cleavage of the first is lower: 0.6 for the first, 0.82 for the second.

Going from G63U U66C to G63U U74A, the self-cleavage rises from 0.42 to 1.29.

Compared with G63U U74G, G63U U74C is lower in self-cleavage: 1.21 for the first, 1.19 for the second.

Going from A64G U67A to A64G U67C, the self-cleavage falls from 0.38 to 0.25.

Compared with A64G U67G, U66C A77U is lower in self-cleavage: 0.44 for the first, 0.34 for the second.

First: U66C A77G
Second: A65G
The self-cleavage of the first is lower: 0.4 for the first, 0.52 for the second.

First: A65U
Second: A65C
The self-cleavage of the first is higher: 0.33 for the first, 0.29 for the second.
